Drawing on PMC8199443, this text covers stoichiometry N for 1 substance.

The stoichiometry N is the number of molecules, sites or subunits per partner or assembly.

The target in the test is OpuABC-SS, OpuABC subunit of the ABC transporter OpuA with a C-terminal TwinStrepII-tag (Lactococcus lactis). Description: SEC; affinity-purified OpuA reconstituted in MSP1D1 nanodiscs (DOPE/DOPC/DOPG; OpuA/MSP1D1/lipid 1:20:2000 or 1:20:1000), Superdex 200 Increase 10/300 GL, 50 mM KPi pH 7.0, 200 mM KCl; peak fraction on SDS-PAGE. (In gel filtration, larger molecules generally elute earlier.)

Substance “OpuABC-SS, OpuABC subunit of the ABC transporter OpuA with a C-terminal TwinStrepII-tag (natural protein)” displayed a stoichiometry N of 2.
